{
  "source": "the PETadex activity labels",
  "key": {"p-NP-C4": {"substrate": "p-NP-C4", "details": "pH 8"}, "pNP-C6": {"substrate": "pNP-C6", "details": "pH 8; 30 °C"}, "[1]": {"experiment": "Proxy for plastic degradation [HPLC-UV] (µmol)", "details": "pH 7"}, "PET": {"substrate": "PET", "experiment": "Proxy for plastic degradation [Absorbance (nm)]", "details": "pH 8.5"}, "PBSA": {"substrate": "PBSA", "experiment": "Proxy for plastic degradation [kcat/Km (catalytic efficiency)] (mM⁻¹s⁻¹)", "details": "pH 8.2"}},
  "data": [
    {"protein": "unnamed (protein) MPPHAARPGPAQNRRGRAMAVITPRRERSSLLSRALRFTAAAATALVTAVSLAAPAHAANPYERGPNPTDALLEARSGPFSVSEERASRFGADGFGGGTIYYPRENNTYGAVAISPGYTGTQASVAWLGERIASHGFVVITIDTNTTLDQPDSRARQLNAALDYMINDASSAVRSRIDSSRLAVMGHSMGGGGTLRLASQRPDLKAAIPLTPWHLNKNWSSVRVPTLIIGADLDTIAPVLTHARPFYNSLPTSISKAYLELDGATHFAPNIPNKIIGKYSVAWLKRFVDNDTRYTQFLCPGPRDGLFGEVEEYRSTCPF", "values": [
      {"measurement": "Km", "setting": "p-NP-C4; 60 °C", "result": 673, "unit": "µM"},
      {"measurement": "kcat", "setting": "p-NP-C4; 60 °C", "result": 483, "unit": "s⁻¹"},
      {"measurement": "kcat/Km", "setting": "p-NP-C4; 60 °C", "result": 718000, "unit": "M⁻¹ s⁻¹"}
    ]},
    {"protein": "unnamed (protein) MKKIYAVALFFLATSFAPNIIFAQCGDVTIESLTNPGPYEVATLTEADGLRNGPDYQGATVYYPTNATPPFASIAIVPGFTALPSSVEEWGPFYASHGIVTIIIGTNSLFDFPEERAVALIDALETMRQENTRSSSPLENQLDVDKFAVSGWSMGGGGAQRAAVLDNTIKGVVALCPWLPNASLNHDSPVLIFSGENDPTAPPAQHADLHYAATPNTTNKLLFEIENGNHSVANTPNGGNGAVGKIALSWLKLYVDENDCYCPLLTESLLVDPPAASKVLSSFECELLSVPDNSFAISVYPNPTHDFVNINSTNPVHFEVYSALGQRLLSGELTQSEKQIDFSNFAKGLYYVRLGNETVKIVRN", "values": [
      {"measurement": "Km", "setting": "pNP-C6", "result": 1370, "unit": "µM"},
      {"measurement": "kcat", "setting": "pNP-C6", "result": 19.1, "unit": "s⁻¹"},
      {"measurement": "kcat/Km", "setting": "pNP-C6", "result": 13900, "unit": "M⁻¹ s⁻¹"}
    ]},
    {"protein": "unnamed (protein) MRKLYLFLFLTLISPISISIFHAQCTGATVESLTNPGPYTVATLSEADGVRNGPKYAGSTIYYPTNATPPYASIAIVPGFTAAPSSVQEWGPFYASHGIVAIIIGTNSLYDQPEARALALLDALETIKQENGRATSPLIGKLDVTKLAVSGWSMGGGGAQRAAVLDNTISAVVALCPYLTSPQLNHTVPVLIFSGQSDPTAPPSQHANVHYNTTPGTTNKLLFEVKNGNHSVANSPTGGGGAVGKLALSWLKIYLEKNDCYCSVLATAIVNSTTVSSKISQSYQCNNALGVVDSKTRFNLYPNPTKDFVQVNVREMASYQLSSSTGQIVLKGIVTSSKNQIDLSKLPAGVYYLQINGETIKVIKKQ", "values": [
      {"measurement": "Km", "setting": "pNP-C6", "result": 300, "unit": "µM"},
      {"measurement": "kcat", "setting": "pNP-C6", "result": 8.9, "unit": "s⁻¹"},
      {"measurement": "kcat/Km", "setting": "pNP-C6", "result": 29700, "unit": "M⁻¹ s⁻¹"}
    ]},
    {"protein": "unnamed (protein) MEMLEEHRCFEGWQQRWRHDSSTLNCPMTFSIFLPPPRDHTPPPVLYWLSGLTCNDENFTTKAGAQRVAAELGIVLVMPDTSPRGEKVANDDGYDLGQGAGFYLNATQPPWATHYRMYDYLRDELPALVQSQFNVSDRCAISGHSMGGHGALIMALKNPGKYTSVSAFAPIVNPCSVPWGIKAFSSYLGEDKNAWLEWDSCALMYASNAQDAIPTLIDQGDNDQFLADQLQPAVLAEAARQKAWPMTLRIQPGYDHSYYFIASFIEDHLRFHAQYLLK", "values": [
      {"measurement": "Km", "setting": "p-NP-C4; 37 °C", "result": 700, "unit": "µM"},
      {"measurement": "kcat", "setting": "p-NP-C4; 37 °C", "result": 0.36, "unit": "s⁻¹"},
      {"measurement": "kcat/Km", "setting": "p-NP-C4; 37 °C", "result": 514, "unit": "M⁻¹ s⁻¹"}
    ]},
    {"protein": "unnamed (protein) MANPYERGPNPTDALLEASSGPFSVSEENVSRLSASGFGGGTIYYPRENNTYGAVAISPGYTGTEASIAWLGGRIASHGFVVITIDTITTLDQPDSRAEQLNAALNHMINRASSTVRSRIDSSRLAVMGHSMGGGGTPRLASQRPDLKAAIPLTPWHLNKNRSSVTVPTLIIGADLDTIAPVATHAKPFYNSLPSSISKAYLELDGATHFAPNIPNKIIGKYSVAWLKRFVDNDTRYTQFLCPGPRDGLFGEVEEYCSTCPF", "values": [
      {"measurement": "Proxy for plastic degradation", "setting": "[1]", "result": 0.6}
    ]},
    {"protein": "unnamed (protein) MLAVWDDTLAHPVRGRDRELATLTGLLDNTSGRRGTGMVVVGAPGTGKTTLLNALVEHAEGFQVLWAEGSAAESDVRFAGVEQLLRPLESLVSLLPDDRGRALRPVWGLPADDEGQVGSLAVPAAVSALLGLAARRQPVLCCVDSAHLLDSASLSALAFAARRAHHAGVVFVFAVDCTADTEVDTETSVWGELPRLRLGRLDDEAAHALLRDRLGASLPHDLADSLLDVGHGNPLALVELAESLTPEHLCGRAAPPSSPPPEGRLCRTLGHRLSALSEGAREVVALAGISEGLDEQLTCRVLPHHRSTLAEAVRSGLVVLDGDTVRTAADTVPSALLAALTPQDIVQAHHRMAEAAEAVGDRDRAVWHRAAIAMAPDPALVADLDDIAERARAAAAHATAAAASERAAALTSDTKERARRLVAAATDHWASGRPQRARTALRLAAPLSDSVLGARVSRLAGEIELRRGDPSVAATKLISTARQLASTHRTLAASALMLAGEASFVAGDNARYCLTAKDAALLCGPEEWPATRVVREHFTAMSATFRGEHSAAAAPLRSLVELGETTPDPTAKTLASQAAFTLGDAERSRDLALQAVVCARARGDESGVPWALVYAALSALLSGQLSAASTTALEGLQVARSLGQSNSAVDHVTVLAMLAALQGDEETALQRLQAANTELAERGLGRPSALATWAAACVDLAHDRPAEAFDRFRRMTVGRSRHCVPLRVMAVPHFVEAAVRCGEKEVARRSLVTFEHWANTTGGTARVALAHRCHALLAEQDGEAQERFTEAVRLHREADAPYDLAVTQLLYASHLRRSRRPKQARELLREAVQLFDDLGATHWVERASQELRACGHPGRGKPHLSRGLSPQQERIAQLVADGATNKEIATQLFISHRTVDHHLRNIFAKLDVRSRVQLAALFR", "values": [
      {"measurement": "Proxy for plastic degradation", "setting": "PET", "result": 12.5, "unit": "mM"},
      {"measurement": "Proxy for plastic degradation", "setting": "PBSA", "result": 308}
    ]}
  ]
}
